Measurements: article PMC7351759, “Nuclear moonlighting of cytosolic glyceraldehyde-3-phosphate dehydrogenase regulates Arabidopsis response to heat stress” (Nature Communications, 2020)

B1: NF-YC10-6xHis (natural protein, Arabidopsis, UniProt Q58CM8 1-195, looked up)
chain: MRRPKSSHVRMEPVAPRSHNTMPMLDQFRSNHPETSKIEGVSSLDTALKVFWNNQREQLGNFAGQTHLPLSRVRKILKSDPEVKKISCDVPALFSKACEYFILEVTLRAWMHTQSCTRETIRRCDIFQAVKNSGTYDFLIDRVPFGPHCVTHQGVQPPAEMILPDMNVPIDMDQIEEENMMEERSVGFDLNCDLQ
notes: Nuclear factor Y subunit C10, cloned from Arabidopsis; also called recombinant NF-YC10
B2: NF-YC10-6xHis-STREP (natural protein, Arabidopsis, UniProt Q58CM8 1-195, looked up)
chain: B1 chain
notes: Nuclear factor Y subunit C10 of Arabidopsis

Columns and labels:
Details in all cases: both partners purified
[1] = biological target: T1, GAPC2-Flag (cytosolic glyceraldehyde-3-phosphate dehydrogenase 2) (Arabidopsis, UniProt Q9FX54 1-338); assay: co-IP; GAPC1-Flag or GAPC2-Flag purified from Arabidopsis mixed with purified NF-YC10-6xHis; IP with anti-Flag antibody and Protein A-agarose, overnight at 4 °C, buffer A (20 mM NaH2PO4 pH 8.0, 150 mM NaCl); blot with anti-6xHis antibody
T1 construct: Cytosolic glyceraldehyde-3-phosphate dehydrogenase GAPC2 of Arabidopsis; CaMV-35S promoter; source: Arabidopsis overexpressing GAPC2-Flag, purified with an anti-Flag antibody and Protein A-agarose
T1 sequence (Q9FX54 whole entry): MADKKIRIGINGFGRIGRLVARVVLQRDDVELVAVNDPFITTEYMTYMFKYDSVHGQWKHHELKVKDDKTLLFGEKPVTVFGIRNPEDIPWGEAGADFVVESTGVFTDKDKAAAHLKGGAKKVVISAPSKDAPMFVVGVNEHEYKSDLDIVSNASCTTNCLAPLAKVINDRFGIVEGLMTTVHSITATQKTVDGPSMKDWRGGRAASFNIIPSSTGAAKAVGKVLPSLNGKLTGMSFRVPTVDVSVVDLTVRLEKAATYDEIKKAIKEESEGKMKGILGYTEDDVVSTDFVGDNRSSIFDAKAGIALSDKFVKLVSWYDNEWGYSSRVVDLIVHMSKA

[2] = biological target: T2, GAPC1-Flag (cytosolic glyceraldehyde-3-phosphate dehydrogenase 1) (Arabidopsis, UniProt P25858 1-338); assay: as above
T2 construct: Cytosolic glyceraldehyde-3-phosphate dehydrogenase GAPC1 of Arabidopsis; CaMV-35S promoter; source: Arabidopsis overexpressing GAPC1-Flag, purified with an anti-Flag antibody and Protein A-agarose
T2 sequence (P25858 whole entry): as the sequence (Q9FX54 whole entry) above, with H61N, V65I, D68E, G92A, F98Y, S227A, M274L counted along it

[3] = biological target: T3, GAPC2-6xHis (Arabidopsis, UniProt Q9FX54 1-338); assay: co-IP; purified GAPC2-6xHis or GAPC2mut’-6xHis mixed with NF-YC10-6xHis-STREP; IP with anti-STREP antibody, blot with anti-6xHis antibody
T3 construct: Cytosolic glyceraldehyde-3-phosphate dehydrogenase GAPC2 of Arabidopsis; source: purified
T3 sequence (Q9FX54 whole entry): as the sequence (Q9FX54 whole entry) above

| Binder | binding result [1] | binding result [2] | binding result [3] |
| --- | --- | --- | --- |
| B1 | binds | binds | – |
| B2 | – | – | binds |
